In patent US20220047631A1 (UNIVERSITY OF CHICAGO, published 2022):
Residue numbers refer to the chain shown, from its start. Where no end group is shown, it is not given here. The star is where a group is joined. GalNAc = N-acetyl galactosamine (O-linked to Thr, Tn antigen); Biotin = O=C1N[C@H]2[C@H](CS[C@H]2CCCCC(=O)*)N1

Columns and labels:
[1] = target: T1, GTKA; test: ELISA; x axis = coating concentration of the peptide; 237Ab fixed at 10 µg/ml [left]
T1 construct: truncation series from GTKAAAA; also called Tn-peptide GTKA, immobilized (C-terminal truncation)
T1 peptide: Biotin-APLVPTQRERGT(GalNAc)KA

[2] = target: T2, GTK; test: as above
T2 construct: truncation series from GTKAAAA; also called Tn-peptide GTK, immobilized (C-terminal truncation)
T2 peptide: Biotin-APLVPTQRERGT(GalNAc)K

[3] = target: T3, Tn-OTS8 peptide ERGT(GalNAc)KPPLEELSGK-biotin, monomer (murine); test: flow cytometry of CAR-transduced mouse T cells with biotinylated peptide
T3 construct: also called glycosylated OTS-8 peptide (biotinylated)
T3 peptide: ERGT(GalNAc)KPPLEELSGK(Biotin)

[4] = target: T4, Tn-OTS8 peptide KAPLVPTQRERGT(GalNAc)KPPLEELSTSATSDHDH (murine, GalNAc (Tn) on the Thr of ...RERGT(GalNAc)KPP...); test: ELISA, peptide coated at 2.5 or 5 µg/ml, biotinylated scFv, streptavidin-HRP
T4 construct: Coated on ELISA plates at 2.5 or 5 µg/ml; also called OTS8p with Tn
T4 peptide: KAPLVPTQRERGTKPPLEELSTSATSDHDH

[5] = target: T3, Tn-OTS8 peptide …; test: flow cytometry of yeast-displayed clone with 1 or 10 nM Tn-OTS8 peptide
Description: FIG. 20. […] 10 clones were isolated from Tn-OTS8 peptide-sorted post-sort-4 and post-sort-5 populations. Each clone was stained with 1 or 10 nM Tn-OTS8 peptide and analyzed by flow cytometry. The mean fluorescence units (MFUs) of each clone is plotted on Y-axis. […] In addition, plasmid DNA was isolated from each clone to determine the kind of mutation(s), and frequency of mutation(s) (n). The sequence of wild-type (wt) and mutated residues is shown in black and maroon, respectively.

[6] = target: T3, Tn-OTS8 peptide …; test: Table 3, column 'Tn-linked antigen' recognized by the scFv
[7] = target: T5, Tn-OTS8 peptide tetramer (murine, UniProt P22629 37-163 (Streptomyces avidinii entry), limits assumed, PE label; GalNAc (Tn) on Thr 4; C-terminal Lys-biotin); test: flow cytometry of yeast-displayed clone with 10 nM OTS8p tetramer [B]
T5 construct: How the tetramer was made is not spelled out; streptavidin-PE is the reagent named with it; also called Tn-OTS8p tetramer; tetramers of glycosylated OTS-8 peptide
T5 sequence (P22629 37-163 limits assumed): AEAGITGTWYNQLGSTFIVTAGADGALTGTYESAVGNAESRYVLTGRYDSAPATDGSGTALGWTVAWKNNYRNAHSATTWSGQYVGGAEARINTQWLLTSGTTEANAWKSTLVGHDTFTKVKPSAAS

[8] = target: T3, Tn-OTS8 peptide …; test: yeast display, flow cytometry titration with peptide
[9] = target: T3, Tn-OTS8 peptide …; test: flow cytometry titration of the yeast-displayed mutant with biotinylated OTS8p, 0.1 to 100 nM [A]
[10] = target: T3, Tn-OTS8 peptide …; test: yeast display, 30 nM biotinylated peptide chased with 100 nM unbiotinylated peptide over 4 hours
Description: (§1) FIG. 21. […] (B) To determine their off-rates, each mutant was stained with 30 nM biotinylated Tn-OTS8 peptide. After washing, the mutants were stained with 100 nM Tn-OTS8 peptide (not biotinylated). The decrease in binding to biotinylated Tn-OTS8p by each mutant was measured over a period of 4 hours, to calculate approximate half-lives (t_{1/2}) and off-rates (koff). […] See Brooks et al., Proc. Natl. Acad. Sci. (USA) 107(22):10056-10061 (2010).

[11] = target: T3, Tn-OTS8 peptide …; test: dissociation on yeast: 30 nM biotinylated Tn-OTS8 peptide, wash, chase with 100 nM non-biotinylated peptide; sheet adds: 30-fold slower than 237mAb:OTS8p [B]
Description: as §1

[12] = target: T3, Tn-OTS8 peptide …; test: yeast display dissociation compared with a literature value
Description: as §1

[13] = target: T3, Tn-OTS8 peptide …; test: dissociation on yeast: 30 nM biotinylated Tn-OTS8 peptide, wash, chase with 100 nM non-biotinylated peptide; % binding over 4 hours [B]
Description: as §1

[14] = target: T3, Tn-OTS8 peptide …; test: yeast display titration compared with a literature value

B1: 237 monoclonal antibody (antibody, V domains shown)
VH: QVQLQQSGGGLVQPGGSMKIFCAASGFTFSDAWMDWVRQSPEKGLEWVAEIRNKANNHETYYAESVKGRFTITRDDSKSRMSLQMNSLRAEDTGIYYCSGGKVRNAYWGQGTTVTVSS
VL: DIQLTQSPLSLPVSLGDQASISCRSSQSLVHSNGNTYLHWYLQKPGQSPKLLIYKVSNRFSGVPDRFSGSGSGTDFTLKISSVEAEDLGVYFCSQSTHVPTFGGGTKLEIK
notes: Murine monoclonal IgG
binding result [1]: no binding (tested: 1000 nM peptide for coating)
binding result [2]: no binding (tested: 1000 nM peptide for coating)

B2: 237-LGQ-CAR on transduced C57BL/6 mouse T cells (other)
scFv: DIQLTQSPLSLPVSLGDQASISCRSSQSLVHSNGNTYLHWYLQKPGQSPKLLIYKVSNRFSGVPDRFSGSGSGTDFTLKISSVEAEDLGVYFCSQSLGQPTFGGGTKLEIKGGGGSGGGGSGGGGSQVQLQQSGGGLVQPGGSMKIFCAASGFTFSDAWMDWVRQSPEKGLEWVAEIRNKANNHETYYAESVKGRFTITRDDSKSRMSLQMNSLRAEDTGIYYCSGGKVRNAYWGQGTTVTVSS
notes: also called CAR with dual specificity (LGQ); not shown: hinge, CD28 and CD3zeta parts of the CAR
binding result [3]: binds

B3: soluble 237 scFv monomer (biotinylated) (scFv)
scFv: B2 scFv with L97T, G98H, Q99V
modifications: biotin on the C-terminal Avitag
notes: also called monomeric scFv; b237; not shown: N-terminal 6xHis tag; C-terminal Avitag
Kd [4]: 5 nM

B4: -VWE (wt: STHV) (scFv)
scFv (VL-linker-VH): B2 scFv with L97V, G98W, Q99E
notes: isolated after sort 5 with Tn-OTS8p; also called clone O5-8
binding result [5]: binds

B5: --WG (wt: STHV) (scFv)
scFv (VL-linker-VH): B2 scFv with L97T, G98W, Q99G
notes: isolated after sort 4 with Tn-OTS8p; also called clone O4-3
binding result [5]: binds

B6: yeast-displayed 237 scFv TNGK mutant (scFv, not shown: large carriers; small tags and cut ends)
scFv: B2 scFv with S96T, L97N, Q99K
binding result [6]: binds

B7: MLV (wt CDRL2: KVS) (scFv)
scFv (VL-linker-VH): B2 scFv with K55M, V56L, S57V, L97T, G98H, Q99V
binding result [7]: no binding (tested: 10 nM)

B8: T-WA (wt: STHV) (scFv)
scFv (VL-linker-VH): B2 scFv with S96T, L97T, G98W, Q99A
notes: isolated after sort 4 with Tn-OTS8p; also called clones O4-1, O4-2, O4-9
binding result [5]: binds

B9: yeast-displayed 237 scFv WE mutant (scFv)
scFv: B2 scFv with L97T, G98W, Q99E
notes: not shown: yeast display carriers: N-terminal Aga2 and HA tag, C-terminal c-myc tag
Kd [8]: ~5 nM
Kd [9]: 4.3 nM
half-life (t1/2) [10]: ~30 min
koff [11]: 0.00042 s⁻¹
fold slower off-rate than the 237 monoclonal antibody Fab with OTS8 peptide (literature) [12]: 30 fold
t1/2 [13]: 27 min
fold higher affinity than the 237 IgG Fab domain (literature SPR) [14]: ~30 fold

B10: 237-TNGK-CAR on transduced C57BL/6 mouse T cells (other)
scFv: B2 scFv with S96T, L97N, Q99K
notes: also called CAR with dual specificity (TNGK); not shown: hinge, CD28 and CD3zeta parts of the CAR
binding result [3]: binds

B11: yeast-displayed 237 scFv LGQ mutant (scFv)
scFv: B2 scFv
notes: as for B9
binding result [6]: binds
